Laboratory results from patent US20250270518A1, “NOVEL LUCIFERASES WITH IMPROVED PROPERTIES” (SVAR Life Science AB, priority 2021, published 2025).
Numbering of substitutions follows the chain as printed. “Also recorded” adds a separate entry of the source.

B1: SVAR Luc-1: Engineered luciferase derived from Metridia longa luciferase, amino acid sequence SEQ ID NO: AA1, encoded by SEQ ID NO: 1 (protein)
chain: MEAEAERGKSPGKKLPLAVIMEIEANAFKAGCTRGCLICLSKIKCTAKMKVYIPGRCHDYGGDKKTGQAGIVGAIVDIPEISGFKEMEPMEQFIAQVDRCASCTTGCLKGLANVKCSELLKKWLPDRCASFADKIQKEVHNIKGMAGDR
modifications: NO.1 (1)..(450) SEQ ID NO.1
B2: SVAR Luc-2: Engineered luciferase derived from Metridia longa luciferase, isoleucine 106 to valine, SEQ ID NO: AA2, encoded by SEQ ID NO: 2 (protein)
chain: B1 chain with I94V
modifications: NO.2 (1)..(450) SEQ ID NO.2

Tests used:
[1] = system: NFkB recognition sequence chimeric promoter in K562 cells; assay: K562 clonal cell lines stably transfected with NFkB responsive reporter gene, increasing TNF (FIG. 8); assay type: cell-based, human; conditions: stable K562 clones, increasing TNF for 6 hours at 37° C., compared with firefly luciferase under same promoter
Source text: FIG. 8 illustrates a comparison of the response of K562 cells stably transfected with either the luciferase gene comprising the sequence set forth in SEQ ID NO: 1 under the control of a chimeric promoter consisting of a SV40 minimal promoter and a 6-fold tandem repeat of the canonical NFkB recognition sequence and K562 cells stably transfected with the firefly luciferase gene comprising the open reading frame encoding the firefly luciferase protein under the control of the same NFkB responsive promoter and treatment of cells with increasing concentrations of TNF[…] for 6 hours at 37° C.
K562 cells originally derived from a chronic myelogenous leukemia (ATCC, catalogue number CCL-243) were transfected with either the Svar luciferase Luc-1 gene or firefly luciferase gene each under the control of a chimeric promoter consisting a SV40 minimal promoter and a 6-fold tandem repeat of the canonical NFkB recognition sequence. Stable clones were isolated and characterized. The clonal cell lines were treated with increasing concentrations of TNF[…] for 6 hours at 37° C. (FIG. 8).

[2] = system: HEK293 cells; assay: Transient transfection of HEK293 cells, luciferase genes under constitutive CMV promoter, luciferase activity in supernatant (FIG. 3A); assay type: cell-based, human; conditions: 18 hours at 37° C., QuantiLuc Gold, compared with native Metridia longa luciferase and other luciferases
Method: FIG. 3A illustrates the response of HEK293 cells following transient transfection of cells with the novel Svar vector encoding the luciferases genes indicated, each under the control of a constitutive CMV promoter, and co-transfection of cells with firefly luciferase under the control of a constitutive thymidine kinase (TK) promoter. Luciferase activity was quantified in the cell supernatant after 18 hours incubation of cells at 37° C. using a commercially available coelenterazine based “glo” substrate (QuantiLuc Gold, Invivogen). The cells were then lysed and firefly luciferase activity was quantified with BrightGlo (Promega).
A series of deletion mutants of the 5′ coding region of the native Metridia longa luciferase gene were designed in silico, synthetized in vitro and tested in transient transfection experiments. The nucleotide sequence of the native Metridia longa gene luciferase gene is illustrated in FIG. 1 and the amino acid sequence in FIG. 2.
A series of random mutation were introduced into the coding sequence of the native Metridia longa luciferase gene using oligonucleotides carrying a single or multiple mutations (FIG. 4). The oligonucleotides were synthetized in vitro and tested in transient transfection experiments in human the HEK293 cell line originally derived from human embryonic kidney cells grown in tissue culture (ATCC Catalogue CRL-1573).

[3] = system: NFkB recognition sequence chimeric promoter in HEK293 cells; assay: Clonal HEK293 cell line stably transfected with NFkB responsive reporter gene, increasing TNF (FIG. 7); assay type: cell-based, human; conditions: stable HEK293 clone, increasing TNF for 6 hours at 37° C., QuantiLuc Gold
Source text: FIG. 7 illustrates the response of a clonal cell line of HEK293 cells stably transfected with a reporter gene comprising the sequence set forth in SEQ ID NO: 1 under the control of a chimeric promoter consisting of a SV40 minimal promoter and a 6-fold tandem repeat of the canonical NFkB recognition sequence treated with increasing concentrations of TNF[…].
HEK293 cells were transfected with the Svar luciferase Luc-1 gene under the control of a chimeric promoter consisting a SV40 minimal promoter and a 6-fold tandem repeat of the canonical NFkB recognition sequence and stable clones were isolated and characterized.

[4] = system: NFkB recognition sequence chimeric promoter in HEK293 cells; assay: Transient transfection of HEK293 cells, luciferase genes under NFkB responsive chimeric promoter, treated with TNF (FIG. 3B); assay type: cell-based, human; conditions: compared with native Metridia longa luciferase gene; for luminescence / luciferase activity, relative light units (RLU): 100 ng/ml TNF for 6 hours at 37° C.
Method: FIG. 3B illustrates the response of HEK293 cells following transient transfection of cells with the novel Svar vector encoding either the wild type Metridia longa luciferase gene, or the Svar luciferase 1 or the Svar luciferase 2 genes each under the control of a chimeric promoter consisting of a SV40 minimal promoter and a 6-fold tandem repeat of the canonical NFkB recognition sequence and treated with 100 ng/ml of TNF[…] for 6 hours at 37° C. prior to quantification of the luciferase signal using a commercially available coelenterazine based “glo” substrate (QuantiLuc Gold, Invivogen).

[5] = system: transfected mammalian cells; assay: Comparison of luciferase properties with other luciferases (Table 2); assay type: cell-based; conditions: relative to other native or engineered luciferases reported in the literature
Source text: FIG. 12 illustrates Table 2 showing a comparison of the properties of the luciferase encoded by the sequence set forth in SEQ ID NO: 1 and SEQ ID NO:2 and comprising the amino acid sequence encoded by the sequence set forth in AA1 and AA2 relative to those of other native or engineered luciferases reported in the literature.

[6] = system: HEK293 cells; assay: Rate of loss of luciferase activity in supernatant of transiently transfected HEK293 cells (FIG. 6); assay type: cell-based, human; conditions: CMV promoter, room temperature, QuantiLuc Gold, compared with wild type Metridia longa luciferase
Source text: FIG. 6A illustrates the rate of loss of luciferase activity in the supernatant of HEK293 cells following transient transfection of cells with the luciferases genes indicated, each under the control of a constitutive CMV promoter, and quantification of luciferase activity at increasing times at room temperature using a commercially available coelenterazine based “glo” substrate (QuantiLuc, Gold Invivogen).

| Molecule | relative light units (RLU) values [1] | luciferase activity / light output (brightness), relative light units (RLU) [2] | relative light units (RLU) and fold induction relative to control not treated with TNF [3] | luminescence / luciferase activity, relative light units (RLU) [4] | luminescence / luciferase activity, relative light units (RLU) ([4]; listed as Svar luciferase 1) | dynamic range relative to control samples in the absence of the pharmacology active substance [4] | toxicity for transfected mammalian cells [5] | signal stability and/or signal duration [6] | luciferase activity / light output (brightness), relative light units (RLU) ([2]; listed as Svar luciferase 2) | luminescence / luciferase activity, relative light units (RLU) ([4]; listed as Svar luciferase 2) |
| --- | --- | --- | --- | --- | --- | --- | --- | --- | --- | --- |
| B1 | markedly higher relative light units (RLU) values | increased light output (brightness) | high levels of both relative light units (RLU) and fold induction | increased luminescence including increased light output (brightness) | enhanced luciferase activity relative to the wild type gene | higher dynamic range | absence of toxicity | increased signal stability and/or signal duration | – | – |
| B2 | – | improved activity relative to the native Metridia longa luciferase; also recorded: equivalent or slightly reduced activity relative to SVAR Luc-1 luciferase | – | increased luminescence including increased light output (brightness) | – | higher dynamic range | – | increased signal stability and/or signal duration | increased light output (brightness) | enhanced luciferase activity relative to the wild type gene |
